{"source": "patent US10369187B2", "about": "“Peptide regulators of JNK family kinases” (Vanderbilt University, priority 2017, dated 2019)", "key": {"[1]": {"target": "MKK4-JNK3 module (Homo sapiens, UniProt P45985+P53779)", "sequence (P45985 whole entry)": "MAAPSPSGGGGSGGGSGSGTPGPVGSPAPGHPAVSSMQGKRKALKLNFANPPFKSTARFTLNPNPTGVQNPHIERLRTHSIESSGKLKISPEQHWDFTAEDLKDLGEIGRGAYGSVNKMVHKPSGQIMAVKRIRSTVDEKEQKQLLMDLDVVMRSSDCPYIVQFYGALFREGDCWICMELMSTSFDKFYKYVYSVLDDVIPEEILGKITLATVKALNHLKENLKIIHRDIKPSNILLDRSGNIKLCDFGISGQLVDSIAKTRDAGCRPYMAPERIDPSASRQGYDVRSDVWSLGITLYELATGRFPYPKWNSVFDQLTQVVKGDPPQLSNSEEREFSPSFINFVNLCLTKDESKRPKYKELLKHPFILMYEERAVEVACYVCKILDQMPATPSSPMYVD", "sequence (P53779 whole entry)": "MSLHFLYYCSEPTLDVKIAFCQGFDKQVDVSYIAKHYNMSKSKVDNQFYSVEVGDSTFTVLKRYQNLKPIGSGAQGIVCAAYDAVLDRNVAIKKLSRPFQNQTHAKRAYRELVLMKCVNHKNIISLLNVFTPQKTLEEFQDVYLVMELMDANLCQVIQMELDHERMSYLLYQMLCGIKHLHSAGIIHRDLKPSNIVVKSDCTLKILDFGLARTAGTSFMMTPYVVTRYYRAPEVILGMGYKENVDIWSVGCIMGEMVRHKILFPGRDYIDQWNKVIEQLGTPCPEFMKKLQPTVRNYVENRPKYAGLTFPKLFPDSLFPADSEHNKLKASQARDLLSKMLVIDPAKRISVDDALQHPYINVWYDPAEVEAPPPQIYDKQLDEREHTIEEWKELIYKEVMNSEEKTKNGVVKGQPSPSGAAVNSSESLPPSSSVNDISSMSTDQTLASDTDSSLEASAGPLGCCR", "assay": "In vitro phosphorylation of JNK3α2 by MKK4 (reconstituted module)", "assay_type": "biochemical", "experimental": "Next, it was tested whether T1A acts as a scaffold facilitating signaling. To this end, experiments used purified proteins, because they provide the most definitive data supporting a direct interaction. As purified ASK1 is not available, MKK4-JNK3 and MKK7-JNK3 modules were reconstituted in the absence and presence of varying concentrations of synthetic purified T1A peptide and measured JNK3 phosphorylation (FIG. 2A). […] This dependence, where signaling is increased at lower scaffold concentrations and decreased at higher, was also found for scaffolding of these modules by full-length arrestin-3^20. It is believed to be a characteristic of simple scaffolds, which act by bringing the enzyme and substrate together, as lower scaffold concentrations make the formation of complete scaffold-enzyme-substrate ternary complexes likely, whereas higher concentrations increase the probability of formation of incomplete enzyme-scaffold and substrate-scaffold binary complexes, suppressing the signaling^25,26. The optimal concentration of a scaffolding protein for signaling depends on its affinity for the proteins it scaffolds^20,25,26.\nJNK3α2^20,23, and MKK4 and MKK7^17,20 were expressed in E. coli and purified as previously described^40. The effect of arrestin-3 and MBP-T1A on the phosphorylation of JNK3α2 by MKK7 or MKK4 was analyzed by an in vitro kinase assay, as described^19,20. Briefly, the assays were conducted in 10 μL containing the following final concentrations: 50 nM active MKK7 or MKK4, 1 μM JNK3α2, and indicated concentrations of arrestin-3 or T1A. The mixtures were incubated individually at 30° C. for 10 sec. The reactions were stopped by the addition of 15 μL of Laemmli SDS sample buffer (Sigma) and 2 μl of total reaction sample was subjected to SDS-PAGE (8%) and transferred polyvinylidene difluoride (PVDF) membranes (Millipore, Bedford, Mass.). Phosphorylated JNK3α2 was visualized by rabbit anti-phospho JNK antibody (Cell Signaling) and the level of JNK phosphorylation was quantified."}, "[2]": {"target": "JNK3 (Homo sapiens, UniProt P53779)", "sequence (P53779 whole entry, species assumed)": "as the sequence (P53779 whole entry) above", "details": "earlier work, reference 23; cited from earlier work"}}}
{"sequence": "MGEKPGTRVFKKSSPNCKLTVYLGK (bovine) [T1A, first 25 residues of arrestin-3]", "values": [{"measurement": "optimal concentration for promoting JNK3 phosphorylation by MKK4 compared with MKK7-JNK3 module", "setting": "[1]", "value": "lower than for MKK7-JNK3 module"}, {"measurement": "optimal concentration relative to full-length arrestin-3, MKK4-JNK3 module", "setting": "[1]", "value": "~10", "unit": "times lower"}, {"measurement": "JNK3 phosphorylation level by MKK4 as a function of T1A concentration", "setting": "[1]; 50 nM MKK4, 1 μM JNK3α2, 10 sec, 30° C., synthetic purified peptide", "value": "bell-shaped curves"}, {"measurement": "JNK3 binding element of arrestin-3", "setting": "[2]", "value": "key interaction site"}]}
